# Data: patent US20260241035A1, “FUNCTIONAL NUCLEIC ACID MOLECULE AND METHOD” (THE UNIVERSITY COURT OF THE UNIVERSITY OF EDINBURGH, priority 2022, published 2026)
# System: GSC7 cells
# Assay: Nano-Glo Dual-Luciferase Reporter (Nanoglo DLR) assay of enhancer activity, fold change to mCMV
# Type: cell-based, human
# Details: expression fold change of the individual enhancer compared to mCMV
# Procedure, shortened: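 160 bp enhancer fragments in NanoLuc reporter plasmids were co-transfected 1:10 with PGK-firefly luciferase into GSC7 cells using Lipofectamine LTX/Plus and read two days later. NanoLuc signal was normalised to firefly, then expressed as fold change to the empty mCMV vector.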
molecule,measurement,value
"ID1101: enhancer fragment, SEQ ID NO: 4 (nucleic acid) DNA: GTGAGTGTGACTCACATGCTGGCATCAGAGCCCCTCTTAGAGCTTAGAACACTGGGCCTCTGTCAGGCAAAGAAAAGGAGTCCCTATGAATAGCCATCTCCACAAATAGCAGTTACTGTCACTTCTTAAAAGACACAAGCATGGCTGGAGACCGGCACTG",Fold change (Median),258.8 fold
